From the supplement of paper PMC9170038

Columns and labels:
[1] = tested on: MS2 coat protein; assay: apparent KD of MS2 coat protein; designed switch direction (-1 OFF switch, 1 ON switch): 1; higher = weaker reporter binding; conditions: Eterna round: R98
Protocol: (§1)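 RNA-MaP: designed FMN/MS2 RNA switches (84 nt design region) are transcribed on-chip within common flanks and titrated with SNAP-549-labelled MS2 coat protein (about 1-3000 nM) in 100 mM Tris pH 7.5, 80 mM KCl, 4 mM MgCl2, without or with 200 uM FMN. Median apparent KD per design; activation ratio = KD,OFF / KD,ON.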

[2] = tested on: MS2 coat protein; assay: apparent KD of MS2 coat protein; higher = weaker reporter binding; conditions: Eterna round: R101
Protocol: as §1

Sequence	apparent KD of MS2 coat protein ([1]; input ligand: FMN 200 uM)	apparent KD of MS2 coat protein ([1]; input ligand: none)	apparent KD of MS2 coat protein ([2]; input ligand: FMN 200 uM)	apparent KD of MS2 coat protein ([2]; input ligand: none)
GCUUGCGACGCAGGAUAUGGGUGCCUGAACACGAGGAUCACCCGUGUAGAGGAAGCGAAAAGCUCUCAGAAGGGCGUCGCAGGC [United States 6 - Jieux - Same State NG 2]	19.8 nM	50.5 nM	–	–
GGAGACCUCACAGGAUAUGCUGGACUUUGUCCAGCAGAAGGGUGUUUAACAUGAGGAUCACCCAUGUAGGUCUCCAAAUUUAAU [Denovo 60]	46 nM	707 nM	–	–
GGAGAUACAUGAGGAUCACCCAUGUAGGAUAUCGGGCCCGUGCCCGGCGAAAGCCGGGCACGGGCCGAGAAGGGCGUACACACC [#LOL-3] (puzzle (switch architecture): Small Loop Exclusion NG 3)	–	–	7.66 nM	8.78 nM
GGAUAGGACAGAGGAUAUACGUGCUAGAGAUACUAGCAAAAUAUCCUCACAUGAGGAUCACCCAUGUAGAAGGCUGUCCUAUCG (puzzle (switch architecture): Exclusion NG 2)	–	–	20.1 nM	5.49 nM
GGAUAGGACAGAGGAUAUACGUGCUAGAGAUACUAGCAAAAUUUCCUCACAUGAGGAUCACCCAUGUAGAAGGCGGUCCUAUCG (puzzle (switch architecture): Exclusion NG 2)	–	–	8.8 nM	5.37 nM
GGAUAGGACAGAGGAUAUACGUGCUAGAGAUACUAGCAAAAUUUCCUCACAUGAGGAUCACCCAUGUAGAAGGCUGUCCUAUCU (puzzle (switch architecture): Exclusion NG 2)	–	–	395 nM	18.6 nM
GGCAGCUUUCAGAAGGGAGUGCGAUAAUCGCACUCAGGAUAUGAGGAUCACCCAUAUCAUGCUGCCACUGAGGCAAAGCCUCAG [#SharedSequence - IEx NG 3-1] (puzzle (switch architecture): Inverted Exclusion NG 1)	–	–	13.3 nM	11 nM
GGUCCAUCAUGAGGAUAUGGCACCUUAUUUGUGCCAGAAGGCAUGUCAAUAGACAUGAGGAUCACCCAUGUAAUAAAUUGGACC [EliMod 3 - Jieux - Same State NG 1]	54.1 nM	642 nM	–	–
GGUCUGAUAUGAGGAUAUGCUCAGGAUAACUGAGCAGAAGGCAUGUGAAAACAUGAGGAUCACCCAUGUAUGAUCUACAGACCA [Same State NG1 - WT Aptamer 4D]	22.7 nM	55.6 nM	–	–
GUACAUGAGGAUCACCCAUGUCACAUAACGUCCGAGGAUACCAGAAGGGCAGACGUUACGACGGUGCAGGAUAUGGGCUCCUAA [Beceanbe] (puzzle (switch architecture): Inverted Same State NG 3)	–	–	37.2 nM	56.6 nM
GUAGCAGCGGCGCCCUCGUAGACAUGAGGAUCACCCAUGUCGCAGGAUAUCAGAAGCGGAGCUGCUGAGAAGGGCGACAUAAGG [Quorus] (puzzle (switch architecture): Exclusion NG 3)	–	–	13.8 nM	7.25 nM
GUAGCAUACCGAGGAUAUUCAUACCAUAAAUGGACAUGAGGAUCACCCAUGUGGCGAAAGCCUUGGGAGAAGGCGGAAUGCUAC [EliMod 3 - Jieux - Same State NG 2]	25.2 nM	673 nM	–	–
GUAGCAUACCGAGGAUAUUCAUACUGGAAACAGACAUGAGGAUCACCCAUGUGGCGAAAGCCUUGGGAGAAGGCGGAAUGCUAC [EliMod 9 - Jieux - Same State NG 2]	42.4 nM	545 nM	–	–
GUAGCAUACGGAGGAUAUUCAUACCGGAAACGGACAUGAGGAUCACCCAUGUGGCGAAAGCCUUGGGAGAAGGCCGUAUGCUAC [#DoubleMagnetSystem - Mat - Same State NG 2 - JL Mod - D 61] (puzzle (switch architecture): Same State NG 2)	–	–	8.06 nM	187 nM
UCACUCACGUUAGGAUAUGGAUCGGAAAACGAUCCAGAAGGAACCUGCAAACACGAGGAUCACCCGUGUUCCAAUAACGAGUGA [SameSame 5 - Jieux - Same State NG 1]	24.7 nM	20.3 nM	–	–
UGAUAGGACAGAGGAUAUACGUGCUAGAGAUACUAGCAAAAUUUCCUCACAUGAGGAUCACCCAUGUAGAAGGCUGUCCUAUCU [#PyrimidineMS2Turnoff - Eli xng 2.01 rotated] (puzzle (switch architecture): Exclusion NG 2)	–	–	533 nM	16.5 nM
UGGUACUAGGGAGGAUAUGGGAAGAUACAUGAGGAUCACCCAUGUUUAAGAAUGCCGAGAGGCAACUAGAAGGCCCUAGUACCU (puzzle (switch architecture): Same State NG 2)	–	–	18.9 nM	437 nM
UUGGACGUCGUAGGAUAUGUAGGAUAUUCCUACAUGAGGAUCACCCAUGUUGAAAUGGAAGAAGGACAGAAGGACGAUGUCCAU (puzzle (switch architecture): Same State NG 2)	–	–	3.83 nM	19.4 nM
UUUAAUAUUAUAGGAUAUGGAUACGAUACGUAUCCAGAAGGGUGAUUAUAAUAUAAUCUAUACAUGAGGAUCACCCAUGUUUAU [AtrosYaY8] (puzzle (switch architecture): Same State NG 1)	–	–	84.8 nM	205 nM
